US20050142135A1, “Agents and methods for modulating interactions between gonadotropin hormones and receptors” (University of Kentucky Research Foundation, priority 2003, published 2005)
Each block holds one substance with its values, some of them ahead of it. *1 amine or outer side, *2 acyl side, *3 side chain or, on linkers, in order; H or OH if unused. [ ]: non-standard residue; d: D form. The star is where a group is joined. ABG = 4-azidobenzoyl glycine, attached via its N-hydroxysuccinimide ester, [N-]=[N+]=Nc1ccc(C(=O)NCC(=O)*)cc1; Tyr(125I) = radioiodinated (125I) tyrosine, O=C([C@H](Cc1ccc(O[*:3])c([125I])c1)N[*:1])[*:2]

Experiments:
hCG = target: T1, hCG (Homo sapiens, UniProt P01215+P0DN86); test: Photoaffinity labeling of hCG with ABG-^125I-LHR^exo3; assay type: binding; conditions: for inhibition of photoaffinity labeling of hCG by ABG-^125I-LHR^exo3: 4 mM of nonlabeled peptide
T1 construct: purchased National Hormone and Pituitary Program
T1 sequence (P01215 25-116, other chains not shown): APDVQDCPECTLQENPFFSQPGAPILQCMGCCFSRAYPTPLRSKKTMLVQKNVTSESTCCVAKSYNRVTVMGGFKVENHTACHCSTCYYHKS
Description: A peptide mimic corresponding to the LHR exoloop 3 sequence of K^573 […]^583 (LHR^exo3) was synthesized, to which a Tyr residue was attached to the C-terminus for radioiodination. The N-terminus of the peptide was acetylated and the C-terminus amidated. NHS-ABG was synthesized as previously described and freshly dissolved in dimethyl sulfoxide to a concentration of 50 mM. The reagent was diluted in 0.1 M sodium phosphate (pH 7.5) to a concentration of 20 mM. The reagent solution was immediately used to derivatize receptor peptides. In the dark, […] of NHS-ABG was added to […] of receptor peptides in […] of 0.1 M sodium phosphate (pH 7.5), and the mixture was incubated for 30 minutes at 25° C. […] After 20 seconds, 7 μl of sodium metabisulfite (2.5 mg/ml) in 10 mM Na2 HPO4, pH 7.4, was introduced to terminate radioiodination. Derivatized and radioiodinated ABG-^exo3 I-LHR^exo3 solution was mixed with 60 μl of 16% sucrose solution in PBS and fractionated on Sephadex Superfine G-10 column (0.6×15 cm) using PBS.
(§1) The mixtures were incubated at 37° C. for 90 minutes in the dark, irradiated with Mineralight R-52 UV lamp for 3 minutes as previously described, and solubilized in 2% SDS, 100 mM dithiothreitol and 8 M urea. The samples were electrophoresed on 8-12% polyacrylamide gradient gels. Gels were dried on filter paper and exposed to an imaging screen overnight, which was scanned on a phosphoimager. Exoloop 3 was modeled.

human LH = target: T2, human LH (Homo sapiens, UniProt P01215+P01229); test: Photoaffinity labeling of LH with ABG-^125I-LHR^exo3; assay type: binding; conditions: increasing concentrations of LH
T2 construct: purchased National Hormone and Pituitary Program
T2 sequence (P01215 25-116): as the sequence (P01215 25-116, other chains not shown) above
T2 sequence (P01229 21-141): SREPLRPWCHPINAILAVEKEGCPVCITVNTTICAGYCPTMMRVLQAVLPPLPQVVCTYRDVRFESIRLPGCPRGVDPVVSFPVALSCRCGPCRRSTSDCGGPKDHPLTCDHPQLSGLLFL
Description: The samples were processed.
as §1

[1] = test system: phospholipase A, phospholipase C, phospholipase D and urokinase; test: Labeling specificity of ABG-^125I-LHR^exo3 on other proteins; assay type: binding
Description: as §1

FSH [2] = target: T3, FSH (Homo sapiens, UniProt P01215+P01225); test: Photoaffinity labeling of FSH with exoloop 3 peptide (ABG-^125I-FSHR^exo3); assay type: binding; conditions: increasing concentrations of unlabeled FSHR peptides
T3 construct: purchased National Hormone and Pituitary Program
T3 sequence (P01215 25-116): as the sequence (P01215 25-116, other chains not shown) above
T3 sequence (P01225 19-129): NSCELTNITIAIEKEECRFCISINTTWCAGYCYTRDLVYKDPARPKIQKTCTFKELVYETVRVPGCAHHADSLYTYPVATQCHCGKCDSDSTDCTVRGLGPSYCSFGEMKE
Description: A peptide mimic corresponding to the exoloop 3 sequence of K^580 […]^590 (FSHR exo3) (SEQ ID NO: 3) was synthesized, to which a Tyr residue was attached to the C-terminus for radioiodination. The N-terminus of the peptide was acetylated and the C-terminus amidated. NHS-ABG was synthesized as previously described and freshly dissolved in dimethyl sulfoxide to a concentration of 50 mM and NHS-ABG in 0.1 M sodium phosphate (pH 7.5) to a concentration of 20 mM. These reagent solutions were immediately used to derivatize receptor peptides. In the dark, 10 μl of NHS-ABG was added to […] of receptor peptides in 40 μl of 0.1 M sodium phosphate (pH 7.5). The mixture was incubated with NHS-ABG for 30 minutes at 25° C. […] After 20 sec, 7 μl of sodium metabisulfite (2.5 mg/ml) in 10 mM Na2 HPO4, pH 7.4, was introduced to terminate radioiodination.
Competitive inhibition experiments were carried out for the photoaffinity labeling experiments. 10 μl of PBS was introduced to each tube and the mixture was incubated with 10 μl of increasing concentrations of nonradioactive receptor peptides. The mixtures were incubated at 37° C. for 90 minutes in the dark, irradiated with Mineralight R-52 UV lamp for 3 minutes as previously described, and solubilized in 2% SDS, 100 mM dithiothreitol and 8 M urea. The samples were electrophoresed on 8-12% polyacrylamide gradient gels. […]

FSH [3] = target: T3, FSH; test: Photoaffinity labeling of FSH with ^125I-FSHR^9-40F13Bpa; assay type: binding; conditions: increasing concentrations of nonradioactive peptide
Description: In the dark, 30 μg of receptor peptides in 40 μl of 0.1 M sodium phosphate (pH 7.5). The mixture was incubated for 30 minutes at 25° C. […] After 20 seconds, 7 μl of sodium metabisulfite (2.5 mg/ml) in 10 mM Na2HPO4, pH 7.4, was introduced to terminate radioiodination.
as §1, with “with a” for “with”, “minutes,” for “minutes as previously described,”, “phosphoimager (Molecular Dynamics).” for “phosphoimager. Exoloop 3 was modeled.”
The FSH α and β subunits co-migrate on SDS-PAGE. To separate them on the gel FSH was deglycosylated with PNGase F and after it was photoaffinity labeled. Enzymatic cleavage was done by incubation of the labeled FSH complex with 20 or 50 units of PNGase F (New England BioLabs, Inc., MA) in 40 μl for 18 hours at 37° C. The samples were solubilized in SDS under the reducing condition and electrophoresed on 15% gel containing 9 M urea.

FSHR = test: Inhibition of ^125I-FSH binding to the receptor on intact cells by exoloop 3 peptide; set-up: species or system human
Chain of FSHR (P23945 18-695): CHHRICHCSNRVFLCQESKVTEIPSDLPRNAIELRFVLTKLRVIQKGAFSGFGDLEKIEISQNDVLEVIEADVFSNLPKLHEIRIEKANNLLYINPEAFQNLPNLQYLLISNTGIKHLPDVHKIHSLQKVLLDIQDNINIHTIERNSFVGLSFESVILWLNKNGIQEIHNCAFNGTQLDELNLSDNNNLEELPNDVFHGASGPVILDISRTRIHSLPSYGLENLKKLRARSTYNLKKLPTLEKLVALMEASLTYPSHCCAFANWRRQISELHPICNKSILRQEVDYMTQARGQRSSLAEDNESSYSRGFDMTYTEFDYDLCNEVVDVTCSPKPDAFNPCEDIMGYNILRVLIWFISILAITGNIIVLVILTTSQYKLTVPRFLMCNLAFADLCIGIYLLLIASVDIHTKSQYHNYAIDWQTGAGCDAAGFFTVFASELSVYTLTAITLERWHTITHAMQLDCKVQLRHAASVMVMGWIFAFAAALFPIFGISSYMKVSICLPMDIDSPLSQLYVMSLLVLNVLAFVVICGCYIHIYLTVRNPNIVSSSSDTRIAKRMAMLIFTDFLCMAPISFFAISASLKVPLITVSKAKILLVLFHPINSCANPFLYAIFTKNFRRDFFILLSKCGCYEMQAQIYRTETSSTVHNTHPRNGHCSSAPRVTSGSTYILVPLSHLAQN
Description: The FSH a and b subunits separated in the lower band and upper band, respectively.
Human FSH (the National Hormone and Pituitary Program) was radioiodinated as previously described for radioiodination of hCG. […] The Kd values were determined by Scatchard plots. Truncated exodomain was solubilized in Nonidet P-40 and assayed for hormone binding as described previously. For intracellular cAMP assay, cells were washed twice with Dulbecco's modified Eagle's media and incubated in the media containing isobutylmethylxanthine (0.1 mg/ml) for 15 minutes. Increasing concentrations of FSH were then added and the incubation was continued for 45 minutes at 37° C. After removing the media, the cells were rinsed once with fresh media without isobutylmethylxanthine, lysed in 70% ethanol, freeze-thawed in liquid nitrogen, and scraped. […] Exoloop 3 of FSHR was modeled based on the crystal structure of rhodopsin as a template.

LHR = target: T4, LHR (Homo sapiens, UniProt P22888); test: Inhibition of ^125I-hCG binding to cells stably expressing LHR; conditions: increasing concentrations of nonradioactive competitor
T4 construct: expressed in transfected cells
T4 sequence (P22888 27-699): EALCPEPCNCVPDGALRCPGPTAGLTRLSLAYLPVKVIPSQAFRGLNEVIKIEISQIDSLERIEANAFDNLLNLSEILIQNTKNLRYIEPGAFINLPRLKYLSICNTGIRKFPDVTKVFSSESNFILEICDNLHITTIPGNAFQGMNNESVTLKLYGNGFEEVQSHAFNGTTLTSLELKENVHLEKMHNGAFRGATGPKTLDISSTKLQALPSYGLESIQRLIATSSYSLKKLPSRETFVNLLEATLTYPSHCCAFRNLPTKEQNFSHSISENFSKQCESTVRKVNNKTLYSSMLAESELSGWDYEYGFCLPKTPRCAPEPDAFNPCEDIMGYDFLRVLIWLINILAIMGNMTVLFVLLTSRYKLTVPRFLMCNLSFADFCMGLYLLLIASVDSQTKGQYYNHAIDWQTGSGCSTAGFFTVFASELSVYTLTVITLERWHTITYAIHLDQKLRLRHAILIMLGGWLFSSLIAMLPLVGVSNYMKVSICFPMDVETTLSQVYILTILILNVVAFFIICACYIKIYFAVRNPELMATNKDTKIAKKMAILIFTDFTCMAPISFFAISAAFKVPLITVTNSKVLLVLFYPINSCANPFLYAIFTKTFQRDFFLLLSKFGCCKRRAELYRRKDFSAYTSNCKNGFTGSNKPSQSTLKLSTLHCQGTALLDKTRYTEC
Description: The cells were washed and bound radioactivity was measured.
The Kd values were determined by Scatchard plots. For intracellular cAMP assay, cells were washed twice with Dulbecco's modified Eagle's media and incubated in the media containing isobutylmethylxanthine (0.1 mg/ml) for 15 minutes. Increasing concentrations of hormone were then added and the incubation was continued for 45 minutes at 37° C. After removing the media, the cells were rinsed once with fresh media without isobutylmethylxanthine, lysed in 70% ethanol, freeze-thawed in liquid nitrogen, and scraped.

human LHR = test: Inositol phosphate assay, LHR exoloop 3 mutants in HEK 293 cells, hCG stimulated; assay type: cell-based; conditions: NS = not significant
Chain of human LHR (P22888 27-363 limits assumed): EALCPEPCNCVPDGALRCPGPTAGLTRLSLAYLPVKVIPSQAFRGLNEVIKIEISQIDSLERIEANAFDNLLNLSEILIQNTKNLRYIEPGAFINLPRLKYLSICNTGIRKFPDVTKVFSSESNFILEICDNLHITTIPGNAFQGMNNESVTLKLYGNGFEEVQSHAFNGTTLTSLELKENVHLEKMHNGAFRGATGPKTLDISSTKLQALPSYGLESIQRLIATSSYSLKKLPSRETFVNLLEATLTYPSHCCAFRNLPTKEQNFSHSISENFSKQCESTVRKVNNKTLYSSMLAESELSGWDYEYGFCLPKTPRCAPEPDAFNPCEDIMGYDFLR
Description: Stable cells were plated in 12 well plates and grown in inositol free DMEM (Atlanta Biologicals) supplemented with 8% heat-inactivated horse serum and […] [^3H]inositol (NEN) for 48 hours to 40-50% confluency. After removing the medium, the cells were incubated in 1 ml of fresh wash buffer consisting of DMEM w/o inositol and 15 mM HEPES (pH 7.3) for 1 hour at 37° C. This medium was removed and 0.3 ml wash buffer containing 20 mM LiCl was added and incubated for 15 minutes at 37° C. After the cells were stimulated with increasing concentrations of hormone for 30 minutes at 37° C., the incubation was terminated by the removal of medium and the addition of 0.25 ml of 0.6 N HCl to each well. The cells were scraped, transferred into microcentrifuge tubes and the wells were again washed with 0.25 ml of 0.6 N HCl. The combined washes were treated with 0.9 ml of a mixture of chloroform:methanol (2:1), vortexed and centrifuged at 1000×g for 5 minutes at room temperature. The top aqueous layer, which was free of phospholipids, was removed and the remaining chloroform layer treated with 0.2 ml of methanol:water (1:1), vortexed and centrifuged, as above. This aqueous layer was added to the previous aqueous layer and the samples dried in a vacuum concentrator. […] Aliquots of 200 μl were counted for radioactivity in 1.5 ml of Ultima AF scintillation fluid (Packard). […]

hCG concentration at which the maximum labeling was reached (hCG; both hormone subunits, constant amount of probe): 50 nM | photoaffinity labeling of denatured hCG (hCG; hCG boiled in 8 M urea): not labeled at all | photoaffinity labeling of phospholipase A, phospholipase C, phospholipase D and urokinase [1]: not photoaffinity labeled
Substance: ABG-^125I-LHR^exo3: LHR exoloop 3 peptide derivatized with N-hydroxysuccinimide of 4-azidobenzoyl glycine and radio-iodinated (Ac-KVPLITVTNSK(ABG)[Tyr(125I)]-NH2; also: derivatized with N-hydroxysuccinimide ester of 4-azidobenzoyl glycine, radio-iodinated (125I))
labeled hCG subunits (hCG): the a band labeled slightly more than the β band | photoaffinity labeling of LH subunits (human LH): Both of the α and β subunits of LH were labeled

Substance: FSHR^9-40: peptide mimic of FSH receptor sequence S9-K40, SNRVFLCQESKVTEIPSDLPRNAIELRFVLTK (SEQ ID NO: 2) (Ac-YSNRVFLCQESKVTEIPSDLPRNAIELRFVLTK-NH2; not fully specified (some residues); printed as S9NRVFLCQESKVTEIPSDLPRNAIELRFVLTK40)
inhibition of photoaffinity labeling of FSH by ^125I-ABG-FSHR^exo3 (FSH [2]): inhibited the photoaffinity labeling in a dose dependent manner | inhibition of photoaffinity labeling of FSH by ^125I-FSHR^9-40F13Bpa (FSH [3]): inhibited the photoaffinity labeling in a dose dependent manner

Substance: FSHR^exo3: peptide mimic of FSHR exoloop 3, KVPLITVSKAK (SEQ ID NO: 3), C-terminal Tyr, N-acetylated, C-amidated (Ac-KVPLITVSKAKY-NH2)
inhibition of photoaffinity labeling of FSH by ^125I-ABG-FSHR^exo3 (FSH [2]): inhibited the photoaffinity labeling in a dose dependent manner | inhibition of ^125I-FSH binding to the receptor on intact cells (FSHR): inhibited ^125I-FSH binding to the receptor on intact cells in a dose dependent manner

inhibition of photoaffinity labeling of hCG by ABG-^125I-LHR^exo3 (hCG): failed to inhibit the labeling
Substance: LHR^18-36: N-terminal peptide of the LHR exodomain (CPGPTAGLTRLSLAYLPVK)

inhibition of photoaffinity labeling of hCG by ABG-^125I-LHR^exo3 (hCG): blocked the labeling | inhibition of ^125I-hCG binding to LHR (LHR): inhibited ^125I-hCG binding to LHR
Substance: LHR^exo3: peptide mimic of LHR exoloop 3, KVPLITVTNSK, C-terminal Tyr, N-acetylated, C-amidated (Ac-KVPLITVTNSKY-NH2)

Substance: Wildtype: wild type human LH receptor expressed in HEK 293 cells (Table II)
IP1 (cpm) (human LHR): 13,780-w cpm
